# Laboratory results from patent publication US20220251595A1, “ENGINEERED ATRLP23 PATTERN RECOGNITION RECEPTORS AND METHODS OF USE” (priority 2019, published 2022).
# B1: AtRLP23+TM-AtEFR-3×FLAG: AtRLP23 apoplastic, eJM and TM domains, AtEFR cytoplasmic domain, 3×FLAG; SEQ ID NO: 33, 34 (protein)
# chain: MSKALLHLHFLSLFLLCCVCHSSIFTLNFHFTGIVACRPHQIQAFTKFTNEFDTRGCNNSDTFNGVWCDNSTGAVAVLQLRKCLSGTLKSNSSLFGFHQLRYVDLQNNNLTSSSLPSGFGNLKRLEGLFLSSNGFLGQVPSSFSNLTMLAQLDLSYNKLTGSFPLVRGLRKLIVLDLSYNHFSGTLNPNSSLFELHQLRYLNLAFNNFSSSLPSKFGNLHRLENLILSSNGFSGQVPSTISNLTRLTKLYLDQNKLTSSFPLVQNLTNLYELDLSYNKFFGVIPSSLLTLPFLAHLALRENNLAGSVEVSNSSTSSRLEIMYLGSNHFEGQILEPISKLINLKHLDLSFLNTSYPIDLKLFSSLKSLRSLDLSGNSISSASLSSDSYIPLTLEMLTLRHCDINEFPNILKTLKELVYIDISNNRMKGKIPEWLWSLPLLQSVTLGNNYFTGFQGSAEILVNSSVLLLYLDSNNFEGALPDLPLSIKGFGVASNSFTSEIPLSICNRSSLAAIDLSYNNFTGPIPPCLRNLELVYLRNNNLEGSIPDALCDGASLRTLDVSHNRLTGKLPRSFVNCSSLKFLSVINNRIEDTFPFWLKALPNLQVLTLRSNRFYGPISPPHQGPLGFPELRIFEISDNKFTGSLPPNYFVNWKASSRTMNQDGGLYMVYEEKLFDEGGYGYTDALDLQYKGLHMEQAKALTSYAAIDFSGNRLEGQIPESIGLLKALIAVNISNNAFTGHIPLSMANLENLESLDMSRNQLSGTIPNGLGSISFLAYINVSHNQLTGEIPQGTQITGQSKSSFEGNAGLCGLPLKESCFGTGAPPMYHQKQEDKEEEEEEEEEEEEVLNGRAVAIGYGSGLLLGLAIAQVIASYKRKKKNNASDGNPSDSTTLGMFHEKVSYEELHSATSRFSSTNLIGSGNFGNVFKGLLGPENKLVAVKVLNLLKHGATKSFMAECETFKGIRHRNLVKLITVCSSLDSEGNDFRALVYEFMPKGSLDMWLQLEDLERVNDHSRSLTPAEKLNIAIDVASALEYLHVHCHDPVAHCDIKPSNILLDDDLTAHVSDFGLAQLLYKYDRESFLNQFSSAGVRGTIGYAAPEYGMGGQPSIQGDVYSFGILLLEMFSGKKPTDESFAGDYNLHSYTKSILSGCTSSGGSNAIDEGLRLVLQVGIKCSEEYPRDRMRTDEAVRELISIRSKFFSSKTTITESPRDAPQSSPQEWMLNTDMHTMASDYKDHDGDYKDHDLDAAAADYKDDDDK
# modifications: Fusion protein
# B2: AtRLP23+TM-AtSOBIR1-3×FLAG: AtRLP23 apoplastic, eJM and TM domains, AtSOBIR1 cytoplasmic domain, 3×FLAG; SEQ ID NO: 41, 42 (protein)
# chain: MSKALLHLHFLSLFLLCCVCHSSIFTLNFHFTGIVACRPHQIQAFTKFTNEFDTRGCNNSDTFNGVWCDNSTGAVAVLQLRKCLSGTLKSNSSLFGFHQLRYVDLQNNNLTSSSLPSGFGNLKRLEGLFLSSNGFLGQVPSSFSNLTMLAQLDLSYNKLTGSFPLVRGLRKLIVLDLSYNHFSGTLNPNSSLFELHQLRYLNLAFNNFSSSLPSKFGNLHRLENLILSSNGFSGQVPSTISNLTRLTKLYLDQNKLTSSFPLVQNLTNLYELDLSYNKFFGVIPSSLLTLPFLAHLALRENNLAGSVEVSNSSTSSRLEIMYLGSNHFEGQILEPISKLINLKHLDLSFLNTSYPIDLKLFSSLKSLRSLDLSGNSISSASLSSDSYIPLTLEMLTLRHCDINEFPNILKTLKELVYIDISNNRMKGKIPEWLWSLPLLQSVTLGNNYFTGFQGSAEILVNSSVLLLYLDSNNFEGALPDLPLSIKGFGVASNSFTSEIPLSICNRSSLAAIDLSYNNFTGPIPPCLRNLELVYLRNNNLEGSIPDALCDGASLRTLDVSHNRLTGKLPRSFVNCSSLKFLSVINNRIEDTFPFWLKALPNLQVLTLRSNRFYGPISPPHQGPLGFPELRIFEISDNKFTGSLPPNYFVNWKASSRTMNQDGGLYMVYEEKLFDEGGYGYTDALDLQYKGLHMEQAKALTSYAAIDFSGNRLEGQIPESIGLLKALIAVNISNNAFTGHIPLSMANLENLESLDMSRNQLSGTIPNGLGSISFLAYINVSHNQLTGEIPQGTQITGQSKSSFEGNAGLCGLPLKESCFGTGAPPMYHQKQEDKEEEEEEEEEEEEVLNGRAVAIGYGSGLLLGLAIAQVIASYKLIIQAIRGSEKPPGPSIFSPLIKKAEDLAFLENEEALASLEIIGRGGCGEVFKAELPGSNGKIIAVKKVIQPPKDADELTDEDSKFLNKKMRQIRSEINTVGHIRHRNLLPLLAHVSRPECHYLVYEYMEKGSLQDILTDVQAGNQELMWPARHKIALGIAAGLEYLHMDHNPRIIHRDLKPANVLLDDDMEARISDFGLAKAMPDAVTHITTSHVAGTVGYIAPEFYQTHKFTDKCDIYSFGVILGILVIGKLPSDEFFQHTDEMSLIKWMRNIITSENPSLAIDPKLMDQGFDEQMLLVLKIACYCTLDDPKQRPNSKDVRTMLSQIKHSDYKDHDGDYKDHDLDAAAADYKDDDDK
# modifications: Fusion protein
# B3: AtRLP23-OsXA21-3×FLAG: AtRLP23 apoplastic and eJM domains, OsXA21 TM and cytoplasmic domains, 3×FLAG; SEQ ID NO: 21, 22 (protein)
# chain: MSKALLHLHFLSLFLLCCVCHSSIFTLNFHFTGIVACRPHQIQAFTKFTNEFDTRGCNNSDTFNGVWCDNSTGAVAVLQLRKCLSGTLKSNSSLFGFHQLRYVDLQNNNLTSSSLPSGFGNLKRLEGLFLSSNGFLGQVPSSFSNLTMLAQLDLSYNKLTGSFPLVRGLRKLIVLDLSYNHFSGTLNPNSSLFELHQLRYLNLAFNNFSSSLPSKFGNLHRLENLILSSNGFSGQVPSTISNLTRLTKLYLDQNKLTSSFPLVQNLTNLYELDLSYNKFFGVIPSSLLTLPFLAHLALRENNLAGSVEVSNSSTSSRLEIMYLGSNHFEGQILEPISKLINLKHLDLSFLNTSYPIDLKLFSSLKSLRSLDLSGNSISSASLSSDSYIPLTLEMLTLRHCDINEFPNILKTLKELVYIDISNNRMKGKIPEWLWSLPLLQSVTLGNNYFTGFQGSAEILVNSSVLLLYLDSNNFEGALPDLPLSIKGFGVASNSFTSEIPLSICNRSSLAAIDLSYNNFTGPIPPCLRNLELVYLRNNNLEGSIPDALCDGASLRTLDVSHNRLTGKLPRSFVNCSSLKFLSVINNRIEDTFPFWLKALPNLQVLTLRSNRFYGPISPPHQGPLGFPELRIFEISDNKFTGSLPPNYFVNWKASSRTMNQDGGLYMVYEEKLFDEGGYGYTDALDLQYKGLHMEQAKALTSYAAIDFSGNRLEGQIPESIGLLKALIAVNISNNAFTGHIPLSMANLENLESLDMSRNQLSGTIPNGLGSISFLAYINVSHNQLTGEIPQGTQITGQSKSSFEGNAGLCGLPLKESCFGTGAPPMYHQKQEDKEEEEEEEEEEEEVLNGRFPVLPISVSLAAALAILSSLYLLITWHKRTKKGAPSRTSMKGHPLVSYSQLVKATDGFAPTNLLGSGSFGSVYKGKLNIQDHVAVKVLKLENPKALKSFTAECEALRNMRHRNLVKIVTICSSIDNRGNDFKAIVYDFMPNGSLEDWIHPETNDQADQRHLNLHRRVTILLDVACALDYLHRHGPEPVVHCDIKSSNVLLDSDMVAHVGDFGLARILVDGTSLIQQSTSSMGFIGTIGYAAPEYGVGLIASTHGDIYSYGILVLEIVTGKRPTDSTFRPDLGLRQYVELGLHGRVTDVVDTKLILDSENWLNSTNNSPCRRITECIVWLLRLGLSCSQELPSSRTPTGDIIDELNAIKQNLSGLFPVCEGGSLEFSDYKDHDGDYKDHDLDAAAADYKDDDDK
# modifications: Fusion protein
# B4: AtRLP23-AtEFR-3×FLAG: AtRLP23 apoplastic and eJM domains, AtEFR TM and cytoplasmic domains, 3×FLAG; SEQ ID NO: 17, 18 (protein)
# chain: MSKALLHLHFLSLFLLCCVCHSSIFTLNFHFTGIVACRPHQIQAFTKFTNEFDTRGCNNSDTFNGVWCDNSTGAVAVLQLRKCLSGTLKSNSSLFGFHQLRYVDLQNNNLTSSSLPSGFGNLKRLEGLFLSSNGFLGQVPSSFSNLTMLAQLDLSYNKLTGSFPLVRGLRKLIVLDLSYNHFSGTLNPNSSLFELHQLRYLNLAFNNFSSSLPSKFGNLHRLENLILSSNGFSGQVPSTISNLTRLTKLYLDQNKLTSSFPLVQNLTNLYELDLSYNKFFGVIPSSLLTLPFLAHLALRENNLAGSVEVSNSSTSSRLEIMYLGSNHFEGQILEPISKLINLKHLDLSFLNTSYPIDLKLFSSLKSLRSLDLSGNSISSASLSSDSYIPLTLEMLTLRHCDINEFPNILKTLKELVYIDISNNRMKGKIPEWLWSLPLLQSVTLGNNYFTGFQGSAEILVNSSVLLLYLDSNNFEGALPDLPLSIKGFGVASNSFTSEIPLSICNRSSLAAIDLSYNNFTGPIPPCLRNLELVYLRNNNLEGSIPDALCDGASLRTLDVSHNRLTGKLPRSFVNCSSLKFLSVINNRIEDTFPFWLKALPNLQVLTLRSNRFYGPISPPHQGPLGFPELRIFEISDNKFTGSLPPNYFVNWKASSRTMNQDGGLYMVYEEKLFDEGGYGYTDALDLQYKGLHMEQAKALTSYAAIDFSGNRLEGQIPESIGLLKALIAVNISNNAFTGHIPLSMANLENLESLDMSRNQLSGTIPNGLGSISFLAYINVSHNQLTGEIPQGTQITGQSKSSFEGNAGLCGLPLKESCFGTGAPPMYHQKQEDKEEEEEEEEEEEEVLNGRVVSGICIGIASLLLIIIVASLCWFMKRKKKNNASDGNPSDSTTLGMFHEKVSYEELHSATSRFSSTNLIGSGNFGNVFKGLLGPENKLVAVKVLNLLKHGATKSFMAECETFKGIRHRNLVKLITVCSSLDSEGNDFRALVYEFMPKGSLDMWLQLEDLERVNDHSRSLTPAEKLNIAIDVASALEYLHVHCHDPVAHCDIKPSNILLDDDLTAHVSDFGLAQLLYKYDRESFLNQFSSAGVRGTIGYAAPEYGMGGQPSIQGDVYSFGILLLEMFSGKKPTDESFAGDYNLHSYTKSILSGCTSSGGSNAIDEGLRLVLQVGIKCSEEYPRDRMRTDEAVRELISIRSKFFSSKTTITESPRDAPQSSPQEWMLNTDMHTMASDYKDHDGDYKDHDLDAAAADYKDDDDK
# modifications: Fusion protein
# Test system: corn protoplasts
# Experiment: Calcium burst in transiently transfected corn protoplasts, R-GECO1.2 fluorescence reporter
# Format: cell-based, Zea mays
# Conditions: Example 3, FIG. 4; 1 μM PpNLP20; 40 minutes; 384-well
row,Molecule,responsiveness to PpNLP20 treatment compared to AtRLP23-3×FLAG (total transient increase of fluorescence)
1,B1,comparable responsiveness
2,B2,increased responsiveness
3,B3,increased responsiveness
4,B4,increased responsiveness
